# Measured values taken from the DeepSol protein solubility set.
# Experiment: soluble on expression in E. coli; label from the status in PepcDB or PDB records
row,Sequence,soluble on expression in E. coli
1,MKFDTIINQPVIETERFDLRPLRKSDMGLIEHYARDERVARMTTSIPHPLPPGMAEGFVARAMSEERTEDVWAMDATRDGGPELMGLISLERMDRNQSEVGYWVAPVFWNTGIASMAVEALVNANPLGNATMFASVFQDNPASARVLTHCGFQYLGDAESYSVARDAAVPTWTYSRKL,not soluble
2,MKFFIAFACLLAVALANEDANVLRAEQQVNVDGFAYAVELDNSVNVQQKGDLNGEEWVVKGSQSWTSPENVPVSIQYIADANGYQVVSANPPLPTPPPIPEAIQRSLEYIAAHPPSQLEHHHHHH,not soluble
3,MKFFSNPKQEAQTHFHLHKDKETMSVSAIFGTGIVTVAASPVLRQFQVPKLGNGGGLGMVIECSSRPQKKSTAHHRKTRPKKTQPWDIKRKPTVYAPLPPLPAEWSPFTLASDDGGAATAAGDLVSGAA,not soluble
4,MKFIRRCMMETRYTVRQAVEMTGVKSYVLRYWEEELELQIHRNELGHRYYTGYDIQLFLNIKELKKRGLQLRAIKNLIPQITASMTGFGESASTLLEGEVIDHAEVKTDRDLKEKISKKDEGKNDKILEFQAILERLITQELKAQNEDEERCRSLDYAIRRQQLARKEAAAAAEKKSGRRRRDK,not soluble
5,MKFKNILFDFDDTLVDFYDAEKKAFYNLAQKYNHQPTQQDFEHFKKVNQAHWEAFQQNKLTKDEVLSQRFINYFNDYQIHVNGKEADKCFRAELAMAPVKLFDHTLEVIQQLKLNHSLYIVTNGVTETQLRRIAQTQFNEIFQDVFISEKAGFQKPMTEFFDFVFEHIGENNRNQTLIVGDSLTSDILGGKNANISTCWFNIRQKENHTSIQPDYIINDLSEMIRIVE,not soluble
6,MKFRQKHEDFIVNEILEYELNDYGNYFLYKLQKNGIENLKAISYLSKNFEVPTKEIGYCGLKDRHAITTQYVSIPKEYGKLSLDEDNLKLEYVGTIEKPLKIGRLYGNRFEIIARAVDKDEFLKIADNIRNLSSGAPNYYDDQRFGSVFNGKFIAKEILKGNYEEVVKILLTSYTKSEKKQLKDLKRFIAKNWGNWDECLEYIDKKQIRSKMFRNMVKSLTYENDFKKAFKYVDNRLKELFISAYQSYLWNECLKEFLKEVIPKENRIYVDYSCGTFLFYENIEEELFDKLKEMDFPTIVSDVEYTDPEKRIIKAILKKERIKISDFEKLDFGKLKYTKRPIISIPEDVNTGKFKSDELNSKKYKIDLEFSLKKGSYATIILKRVFNILLEHHHHHH,soluble
7,MKFTSLLTAGALASTLVSPAIMAADTASASLSDAQKKEIEKVIHDYLINNPEVLLEASQALQQKQQQNMQQQAQAAIQENAEQVFQGKLTTVGNPKGNVTLVEFFDYQCIHCKKMASTIENLVKKDSGLRVIYKEFPIFGKTSDLASRVALAAGMQGKYQAMHNALITIDKRLDEKTVMDAAKSIGLDMQKLKKDMDSQEVTDILDANRQLAEKLHLMGTPAFIIGSTPDGQYKKGSEISFIPGATSEQSLRELIKKAAGN,not soluble
8,MKFVNFDEYKQLVDYFRNRLNPNYSSPTMLFIISITGMRASEAFGLVWDDIDFNNNTIKCRRTWNYRNKVGGFKKPKTDAGIRDIVIDDESMQLLKDFREQQKTLFESLGIKPIHDFVCYHPYRKIITLSALQNTLDHALKKLNISTPLTVHGLRHTHASVLLYHGVDIMTVSKRLGHASVAITQQTYIHIIKELENKDKDKIIELLMELLEHHHHHH,soluble
9,MKGLYFQQSSTDEEITFVFQEKEDLPVTEDNFVKLQVKACALSQINTKLLAEMKMKKDLFPVGREIAGIVLDVGSKVSFFQPDDEVVGILPLDSEDPGLCEVVRVHEHYLVHKPEKVTWTEAAGSIRDGVRAYTALHYLSHLSPGKSVLIMDGASAFGTIAIQLAHHRGAKVISTACSLEDKQCLERFRPPIARVIDVSNGKVHVAESCLEETGGLGVDIVLDAGVRLYSKDDEPAVKLQLLPHKHDIITLLGVGGHWVTTEENLQLDPPDSHCLFLKGATLAFLNDEVWNLSNVQQGKYLCILKDVMEKLSTGVFRPQLDEPIPLYEAKVSMEAVQKNQGRKKQVVQF,soluble
10,MKGVHHRPHEAVPTWACGWGVATTEHMAVSRRKHFSSICLHAQGSSRLPVLSTGTAVSELLRTSLCQVVELGPSPYLSLVPTVLLTVQHLGALAWGWRPW,soluble
11,MKHEWRKFEKELYGVKAKPIFLEVEEQRFITIKGKGNPNDQDFSNRVSALYALAYGIKMAYKQAMKTEQDDRAVTDFAVYPLEGLWQQAKDAKEDTLEKDKLSYTIMIRQPEFITKELVDQALDRVKIKKPNSFYESISFESIKDGKCIQVLHIGSYDDEPQSFAKMDAFAKEHGLKRSSDIHREIYLSNAQRTEKSKLKTILRYQVEEK,not soluble
12,MKHLPQLEGVSVGLEGEAVSLFWGEIKEEERQEIYECAKALVPWRKGPFWVGDFLIDSEWVSAKKYALLEPHFDLCNKDVADIGCNNGYYMFRMWGQKPKSLTGFDPSPLCRTQFDFINHFIQAPIRFELLGVEHLEGYGKLFDVIFCLGVLYHRSDPIQTLKSLYKGLAKGGELLLDTLMIEGEEEVALTPKDRYAKMSNVYFIPTFKALSHWLHRAGFERVEKLEIAKTGLDEQRKTEWINSQSLEDFLDPCSHDRTIEGYPAPRRIYVKAYKGA,not soluble
13,MKHSGYLWAIGKNVWKRWKKRFFVLVQVSQYTFAMCSYREKKAEPQELLQLDGYTVDYTDPQPGLEGGRAFFNAVKEGDTVIFASDDEQDRILWVQAMYRATGQSHKPVPPTQ,soluble
14,MKHTLPDLPFDYADLEPVISHEIMQLHHQKHHATYVNNLNQIEEKLHEAVSKGNLKEAIALQPALKFNGGGHINHSIFWTNLAKDGGEPSKELMDTIKRDFGSLDNLQKRLSDITIAVQGSGWGWLGYCKKDKILKIATCANQDPLEGMVPLFGIDVWEHAYYLQYKNVRPDYVHAIWKIANWKNISERFANARQ,soluble
15,MKIALIGATGMAGSRILEELVSRGHYVKALARDTHKVADTERVMAVDIDLNDHDALVEALRGQDAVISAVRFHGLDANALFNAIHDSKVKRYLVVGGAGSLHVPHQNTRVLDSEDFPEAYKPEAEAAAHFLDKLKEKDDLDWTFISPSAEFGPGKRTGEFRLGKDELLVGEEGSKISAEDFAVALADELEHNNHIQQRFTVGYLEHHHHHH,not soluble
16,MKIAMLGSLGNINRIVVPKLVQAGHDVTVISTSPKRQASIEAIGAHAAIGTMTDVDFLSTTFTDKDVVYLMLSGGIGDDPFEGAVAQAKIWKQAIENAGVTNVVNLSSIGADADEVAGSLHAYNLIEHELRQLDGVNLAFVRPTGFYANLFGNLATIKAEHKIYSSTPAASAQKYVAPEDIASVVYPLIDHTPAGITVKYAFSDTFTGDQFVADLRDALNMPDLQWVQISDEQYQANLTNHGVPVKIAASLVQTSRYQREPEGLYADLNASDTSAGQVKLADFVRTFVVAYNSEGGYQSHTIAD,not soluble
17,MKIDTNFLCDLWMALFQFSNDENINEKECTALVDIMSLVEKVLVLKLQDDVPNIVKILAVLTDFGDSELPHSMDSLLRAYEPDLDNPIKKVA,not soluble
18,MKIGIFDSGAGGMTVLKAIREAYPNVDVVYLGDTARVPYGIRSKETIVRYSKECANFLKDKGVDLLVVACNTASAYALEELKREFPFPVFGVIEPGVKEALRKSKTKRIGVIGTQATIKSGAYQEALKRAGAEVYSKACPLFVPLVEEGMIEGEIPKKVVEHYLKDFKGKVDTLILGCTHYPLLKREIQNFLEGVNVIDSSRATAKSLKDFVKNEGSGSLELYFTDRSQNLERLIKLILGEEVEPKITSEVFVL,soluble
19,MKIGLFYGSSTCYTEMTAEKIRAILGEELVDIHNVKESPLTLMSDYDLLLLGISTWDFGEIQEDWSAVWDHIGGVSLKNKYVALFGLGDQEGYGEWYLDAMGLLHDQIKKSGANLLGYWPNQGYHFEASKALTEDGSHFVGLALDEDSQYDLSDERIATWVEQVLTEYHDAI,not soluble
